Data reported in patent US20140322218A1 (Amgen, published 2014).

How the values were obtained:
Experiment in all cases: FACS, transfected 293T
[1] = biological target: T1, muCDH19(44-770), Flag-tagged, on 293T cells (mouse)
T1 construct: also called Mu EC1-5
T1 chain: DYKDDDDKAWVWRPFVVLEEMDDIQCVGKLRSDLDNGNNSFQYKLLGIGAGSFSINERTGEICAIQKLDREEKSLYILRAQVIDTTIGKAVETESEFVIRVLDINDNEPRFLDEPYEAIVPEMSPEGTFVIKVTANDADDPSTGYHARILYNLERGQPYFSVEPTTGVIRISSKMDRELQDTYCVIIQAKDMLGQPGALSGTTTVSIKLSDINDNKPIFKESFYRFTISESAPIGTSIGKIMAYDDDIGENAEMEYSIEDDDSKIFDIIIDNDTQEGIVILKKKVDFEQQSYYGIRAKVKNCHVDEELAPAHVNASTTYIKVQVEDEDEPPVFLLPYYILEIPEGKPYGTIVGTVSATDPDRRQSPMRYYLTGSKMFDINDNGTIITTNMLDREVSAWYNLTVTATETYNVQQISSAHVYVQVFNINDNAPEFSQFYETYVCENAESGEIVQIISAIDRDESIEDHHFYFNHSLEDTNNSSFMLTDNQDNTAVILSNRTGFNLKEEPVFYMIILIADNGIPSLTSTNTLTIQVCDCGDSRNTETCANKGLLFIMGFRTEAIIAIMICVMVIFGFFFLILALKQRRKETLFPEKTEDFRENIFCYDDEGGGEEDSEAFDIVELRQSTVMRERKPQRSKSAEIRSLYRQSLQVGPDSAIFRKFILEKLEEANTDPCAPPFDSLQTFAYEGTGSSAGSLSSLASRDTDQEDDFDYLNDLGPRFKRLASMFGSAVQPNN

[2] = biological target: T2, raCDH19(1-43)::FLAG::raCDH19(44-770), on 293T cells (rat)
T2 construct: Entry holds leader (1-43), Flag tag and CDH19 part; leader left out; also called Ra EC1-5
T2 chain: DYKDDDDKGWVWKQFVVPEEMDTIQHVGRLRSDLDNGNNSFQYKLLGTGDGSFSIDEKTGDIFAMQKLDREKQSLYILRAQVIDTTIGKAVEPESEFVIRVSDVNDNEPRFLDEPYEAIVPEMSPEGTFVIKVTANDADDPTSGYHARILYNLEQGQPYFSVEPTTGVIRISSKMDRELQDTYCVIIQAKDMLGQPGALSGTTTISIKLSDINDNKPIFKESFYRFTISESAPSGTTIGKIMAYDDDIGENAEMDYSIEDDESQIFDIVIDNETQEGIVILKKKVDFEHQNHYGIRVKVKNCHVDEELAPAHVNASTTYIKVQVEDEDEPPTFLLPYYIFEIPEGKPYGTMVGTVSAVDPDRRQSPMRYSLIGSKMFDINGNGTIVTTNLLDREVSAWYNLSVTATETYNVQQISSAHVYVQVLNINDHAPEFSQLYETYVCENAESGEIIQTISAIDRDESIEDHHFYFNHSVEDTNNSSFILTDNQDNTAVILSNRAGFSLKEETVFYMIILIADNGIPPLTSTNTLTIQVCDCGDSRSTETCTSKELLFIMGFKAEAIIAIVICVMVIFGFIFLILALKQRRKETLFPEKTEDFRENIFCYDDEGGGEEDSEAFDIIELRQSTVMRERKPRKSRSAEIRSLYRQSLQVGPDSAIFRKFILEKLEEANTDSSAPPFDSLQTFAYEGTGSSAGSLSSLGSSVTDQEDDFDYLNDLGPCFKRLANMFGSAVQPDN
Method: (§1) The following binding assay was completed in presence of 2 mM CaCl2. […] Cells were then washed one time and the amount of cell associated Alexa647-labelled Ab was quantitated by flow cytometry. The experiments included mock transfected controls.

[3] = biological target: T3, rhCDH19(1-43)::FLAG::rhCDH19(44-772), on 293T cells (rhesus macaque, UniProt Q9H159 44-772 (human entry))
T3 construct: Entry holds leader (1-43), Flag tag and CDH19 part; leader left out; also called Rh EC1-5
T3 chain: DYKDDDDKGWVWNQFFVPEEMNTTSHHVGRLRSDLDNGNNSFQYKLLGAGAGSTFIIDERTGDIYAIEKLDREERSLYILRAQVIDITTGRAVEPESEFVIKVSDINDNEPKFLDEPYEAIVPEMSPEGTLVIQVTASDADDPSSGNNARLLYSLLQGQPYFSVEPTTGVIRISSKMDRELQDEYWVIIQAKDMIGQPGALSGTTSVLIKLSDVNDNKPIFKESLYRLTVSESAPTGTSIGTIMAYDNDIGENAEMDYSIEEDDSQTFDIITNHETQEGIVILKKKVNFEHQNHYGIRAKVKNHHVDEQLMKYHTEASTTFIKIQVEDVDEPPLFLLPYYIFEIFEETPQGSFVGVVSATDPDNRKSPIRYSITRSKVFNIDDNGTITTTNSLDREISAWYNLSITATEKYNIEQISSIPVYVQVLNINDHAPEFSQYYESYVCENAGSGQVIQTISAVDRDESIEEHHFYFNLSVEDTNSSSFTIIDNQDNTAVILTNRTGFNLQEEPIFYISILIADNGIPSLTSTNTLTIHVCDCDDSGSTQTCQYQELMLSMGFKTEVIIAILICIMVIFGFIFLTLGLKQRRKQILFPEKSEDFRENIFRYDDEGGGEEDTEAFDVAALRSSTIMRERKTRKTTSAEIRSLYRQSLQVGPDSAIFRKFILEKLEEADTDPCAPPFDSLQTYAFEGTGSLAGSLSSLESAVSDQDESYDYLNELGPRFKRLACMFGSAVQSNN
Method: as §1

[4] = biological target: T4, huCDH19(44-249)::muCDH19(248-770), Flag-tagged, on 293T cells (human/mouse chimera)
T4 construct: also called Hu EC1-2; C137896
From the text: (§2) The experiment included assaying the anti-CDH19 antibodies against mouse Cadherin19 to determine suitability for binning on these human/mouse chimeras.

[5] = biological target: T5, huCDH19(44-141)::muCDH19(140-770), Flag-tagged, on 293T cells (human/mouse chimera)
T5 construct: also called Hu EC1
From the text: as §2

B1: hu anti-<huCDH19> 4B10 VH::huIgG1z / 4B10 VL::huKLC (Ab ID 13590) (antibody, V domains shown)
VH: QVQLVESGGGVVQPGRSLRLSCAASGFTFSSYDMHWVRQAPGKGLEWVAVISYDGTNEYYADSVKGRFTISRDTSKNTLYLQMNSLRAEDTAVYYCARERYFDWSFDYWGQGTLVSVSS
VL: EIVLTQSPGTLSLSPGERATLSCRASQSVSNTYLAWYHQRPGQAPRLLIYGASSRATGIPDRFSGSGSGTDFALTISSLEPEDFAVYYCQQYSNSWTFGQGTKVEIKR
**Q.** Does B1 bind [1]?
**A.** no binding (tested: 5 ug/ml)

**Q.** Does B1 bind [2]?
**A.** binds

**Q.** Does B1 bind [3]?
**A.** binds

B2: anti-CDH19 antibody 2G6 (Ab ID 13588) (antibody, human IgG1, lambda, V domains shown)
VH: QVQLVESGGGVVQPGRSLRLSCAASGFTFSSYGMHWVRQAPGKGLEWVAFIWYDGSNKYYADSVKDRFTISRDNSKNTLYLQMKSLRAEDTAVYYCARRAGIIGTIGYYYGMDVWGQGTTVTVSS
VL: SYELTQPPSVSVSPGQTASITCSGDRLGEKYTCWYQQRPGQSPLLVIYQDTKRPSGIPERFSGSNSGNTATLTISGTQAMDEADYYCQAWDSSTVVFGGGTKLTVLG
**Q.** What does the source list for B2?
**A.** binding result [4]: binds; binding result [5]: binds; binding result [1]: binds; binding result [2]: binds; binding result [3]: binds

B3: hu anti-<huCDH19> 23A10.3 (1-474)(L92Q) VH::huIgG1z / 23A10.3 (1-231)(C42S) VL::huLLC-C2 (Ab ID 14077) (antibody, V domains shown)
VH: QVQLVESGGGVVQPGRSLRLSCAASGFTFSRYGIHWVRQAPGKGLEWVAVIWYDGSNKYYADSVKGRFTISRDNSKNTLYLQMNSLRAEDSAVYYCARRAGIPGTTGYYYGMDVWGQGTTVTVSS
VL: SYELTQPPSVSVSPGQTASITCSGDRLGEKYVSWYQQKPGQSPILVIYQDNKWPSGIPERFSGSNSGNTATLTISGTQAMDEADYYCQAWDSSTVVFGGGTKLTVLG
notes: Engineered variant of 23A10
**Q.** Does B3 bind [1]?
**A.** binds

**Q.** Does B3 bind [2]?
**A.** binds

**Q.** Does B3 bind [3]?
**A.** binds

B4: anti-CDH19 antibody 4A2 (Ab ID 13592) (antibody, human IgG1, kappa, V domains shown)
VH: QVQLQESGPGLVKPSQTLSLTCTVSGGSISSSGYYWSWIRQHPGKGLEWIGYIYYTGSAYYNPSLKSRVTISVDTSKNQFSLKLSSVTAADTAVYYCARDGSSGWYFQYWGQGTLVTVSS
VL: EIVLTQSPGTLSLSPGERATLSCRASRNISSSYLAWYQQKPGQAPRLLIYGPSSRATGIPDRFSGSGSGTDFTLTISRLEPEDFTVYYCQQYGSSFTFGPGTKVDIKR
**Q.** Does B4 bind [3]?
**A.** binds

B5: hu anti-<huCDH19> 25F8.1 (1-469)(F90Y) VH::huIgG1z / 25F8.1 (1-235)(K45Q,S102A,D111E) VL::huLLC-C2 (Ab ID 14096) (antibody, V domains shown)
VH: QVQLVQSGAEVKKPGASVKVSCKASGYTFTSYYIHWVRQAPGQGLEWMGIINPSGGSTRYAQKFQGRVTMTRDTSTSTVYMELSSLRSEDTAVYYCARGGIQLWLHFDYWGQGTLVTVSS
VL: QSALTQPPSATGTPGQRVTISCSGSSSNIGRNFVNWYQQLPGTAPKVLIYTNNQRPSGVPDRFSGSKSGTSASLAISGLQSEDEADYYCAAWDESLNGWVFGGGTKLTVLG
notes: Engineered variant of 25F8
**Q.** Does B5 bind [2]?
**A.** no binding (tested: 5 ug/ml)

**Q.** Does B5 bind [3]?
**A.** binds

B6: hu anti-<huCDH19> 26D1.1 VH::huIgG1z / 26D1.1 VL::huLLC-C2 (Ab ID 13882) (antibody, V domains shown)
VH: QVQLVQSGAEVKKPGASVKVSCKASRYTFTSYYMSWVRQAPGQGLEWMGIIHPSGGDTTYAQKFQGRVTMTGDTSTSTVYMELSSLRSEDTAVYYCARGGIKLWLHFDYWGQGTLVTVSS
VL: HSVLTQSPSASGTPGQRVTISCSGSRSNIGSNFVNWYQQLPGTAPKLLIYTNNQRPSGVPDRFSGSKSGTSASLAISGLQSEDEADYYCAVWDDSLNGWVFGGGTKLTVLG
**Q.** Which results are given for B6?
**A.** binding result [4]: binds; binding result [5]: binds; binding result [1]: no binding (tested: 5 ug/ml); binding result [2]: no binding (tested: 5 ug/ml); binding result [3]: binds

B7: hu anti-<huCDH19> 4A9 VH::huIgG1z / 4A9 VL::huLLC-C1 (Ab ID 13589) (antibody, V domains shown)
VH: QVQLQESGPGLVKPSETLSLTCTVSGGSISGYYWSWIRQPPGKGLEWFAYFSYSGSTNYNPSLKSRVTLSVDTSKNQFSLKLSSVTAADTAVYYCARNWAFHFDFWGQGTLVTVSS
VL: QSVLTQPPSVSGAPGQRVTISCTGSSSNIGTGYAVHWYQQFPGTAPKLLIYGNNNRPSGVPDRFSGSKSGTSASLAITGLQAEDEADYYCQSYDSRLSGWVFGGGTKLTVLG
notes: Recombinant fully human IgG1
**Q.** Which results are given for B7?
**A.** binding result [4]: binds; binding result [5]: binds; binding result [1]: no binding (tested: 5 ug/ml); binding result [2]: no binding (tested: 5 ug/ml); binding result [3]: binds
